Experimental data reported in the supplement of paper PMC10567573.

B1: PLAGL1 (parent)
chain: EKPPSGTKEKKHQCDHCERCFYTR

Variants of: B1
Assay: protein stability index of a GFP-peptide fusion (GPS, HEK-293T) (PSI 1-6); higher = more stable
Settings: c terminus: a fixed tail appended
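Also: lentivirally expressed fusions sorted by FACS into six bins by GFP to DsRed ratio, PSI derived from sequencing read proportions per bin multiplied by bin number.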

Row | Variant | protein stability index
1 | EKPPSGTKEKKHQNDHCERCFYTR [C14N] | 3.71
2 | EKPPSGTKEKKHQSDHCERCFYTR [C14S] | 4.02
3 | EKPPSGTKEKKHQQDHCERCFYTR [C14Q] | 4.06
4 | EKPPSGTKEKKHQFDHCERCFYTR [C14F] | 3.81
5 | EKPPSGTKEKKHQGDHCERCFYTR [C14G] | 3.96
6 | EKPPSGTKEKKHQKDHCERCFYTR [C14K] | 4.08
7 | EKPPSGTKEKKHQMDHCERCFYTR [C14M] | 4.11
8 | EKPPSGTKEKKHQPDHCERCFYTR [C14P] | 4.03
9 | EKPPSGTKEKKHQYDHCERCFYTR [C14Y] | 3.56
10 | EKPPSGTKEKKHQTDHCERCFYTR [C14T] | 3.8
11 | EKPPSGTKEKKHQWDHCERCFYTR [C14W] | 3.4
12 | EKPPSGTKEKKHQRDHCERCFYTR [C14R] | 3.97
13 | EKPPSGTKEKKHQHDHCERCFYTR [C14H] | 3.57
14 | EKPPSGTKEKKHQIDHCERCFYTR [C14I] | 3.73
15 | EKPPSGTKEKKHQADHCERCFYTR [C14A] | 3.97
16 | EKPPSGTKEKKHQVDHCERCFYTR [C14V] | 4.55
17 | EKPPSGTKEKKHQLDHCERCFYTR [C14L] | 4.19
18 | EKPPSGTKEKKHQEDHCERCFYTR [C14E] | 4.84
19 | EKPPSGTKEKKHQDDHCERCFYTR [C14D] | 4.14
20 | EKPPSGTKEKKHQCDHCELCFYTR [R19L] | 3.45
21 | EKPPSGTKEKKHQCDHCEPCFYTR [R19P] | 3.3
22 | EKPPSGTKEKKHQCDHCEACFYTR [R19A] | 4.31
23 | EKPPSGTKEKKHQCDHCEHCFYTR [R19H] | 4.21
24 | EKPPSGTKEKKHQCDHCEECFYTR [R19E] | 4.54

Row | Variant | protein stability index
25 | EKPPSGTKEKKHQCDHCENCFYTR [R19N] | 4.36
26 | EKPPSGTKEKKHQCDHCEFCFYTR [R19F] | 3.69
27 | EKPPSGTKEKKHQCDHCEICFYTR [R19I] | 3.52
28 | EKPPSGTKEKKHQCDHCESCFYTR [R19S] | 3.9
29 | EKPPSGTKEKKHQCDHCECCFYTR [R19C] | 3.3
30 | EKPPSGTKEKKHQCDHCEWCFYTR [R19W] | 3.29
31 | EKPPSGTKEKKHQCDHCETCFYTR [R19T] | 3.52
32 | EKPPSGTKEKKHQCDHCEYCFYTR [R19Y] | 3.79
33 | EKPPSGTKEKKHQCDHCEMCFYTR [R19M] | 3.83
34 | EKPPSGTKEKKHQCDHCEQCFYTR [R19Q] | 4.34
35 | EKPPSGTKEKKHQCDHCEDCFYTR [R19D] | 4.91
36 | EKPPSGTKEKKHQCDHCEGCFYTR [R19G] | 3.24
37 | EKPPSGTKEKKHQCDHCEKCFYTR [R19K] | 4
38 | EKPPSGTKEKKHQCDHCEVCFYTR [R19V] | 3.39
39 | EKPPSGTKEKKPQCDHCERCFYTR [H12P] | 2.2
40 | EKPPSGTKEKKRQCDHCERCFYTR [H12R] | 2.17
41 | EKPPSGTKEKKDQCDHCERCFYTR [H12D] | 3.09
42 | EKPPSGTKEKKAQCDHCERCFYTR [H12A] | 2.44
43 | EKPPSGTKEKKLQCDHCERCFYTR [H12L] | 2.55
44 | EKPPSGTKEKKVQCDHCERCFYTR [H12V] | 1.99
45 | EKPPSGTKEKKEQCDHCERCFYTR [H12E] | 3.04
46 | EKPPSGTKEKKIQCDHCERCFYTR [H12I] | 2.6
47 | EKPPSGTKEKKSQCDHCERCFYTR [H12S] | 2.88
48 | EKPPSGTKEKKTQCDHCERCFYTR [H12T] | 3.24

Row | Variant | protein stability index
49 | EKPPSGTKEKKYQCDHCERCFYTR [H12Y] | 2.15
50 | EKPPSGTKEKKCQCDHCERCFYTR [H12C] | 4.59
51 | EKPPSGTKEKKNQCDHCERCFYTR [H12N] | 2.52
52 | EKPPSGTKEKKWQCDHCERCFYTR [H12W] | 1.89
53 | EKPPSGTKEKKQQCDHCERCFYTR [H12Q] | 3.23
54 | EKPPSGTKEKKKQCDHCERCFYTR [H12K] | 3.55
55 | EKPPSGTKEKKGQCDHCERCFYTR [H12G] | 2.42
56 | EKPPSGTKEKKFQCDHCERCFYTR [H12F] | 2.39
57 | EKPPSGTKEKKMQCDHCERCFYTR [H12M] | 2.28
58 | EKPPSGTKEKKHQCLHCERCFYTR [D15L] | 2.91
59 | EKPPSGTKEKKHQCPHCERCFYTR [D15P] | 2.25
60 | EKPPSGTKEKKHQCAHCERCFYTR [D15A] | 3.75
61 | EKPPSGTKEKKHQCSHCERCFYTR [D15S] | 3.29
62 | EKPPSGTKEKKHQCKHCERCFYTR [D15K] | 3.33
63 | EKPPSGTKEKKHQCEHCERCFYTR [D15E] | 3.18
64 | EKPPSGTKEKKHQCQHCERCFYTR [D15Q] | 2.7
65 | EKPPSGTKEKKHQCMHCERCFYTR [D15M] | 2.63
66 | EKPPSGTKEKKHQCNHCERCFYTR [D15N] | 3.23
67 | EKPPSGTKEKKHQCGHCERCFYTR [D15G] | 4.38
68 | EKPPSGTKEKKHQCFHCERCFYTR [D15F] | 2.79
69 | EKPPSGTKEKKHQCRHCERCFYTR [D15R] | 2.2
70 | EKPPSGTKEKKHQCYHCERCFYTR [D15Y] | 2.97
71 | EKPPSGTKEKKHQCWHCERCFYTR [D15W] | 3.15
72 | EKPPSGTKEKKHQCHHCERCFYTR [D15H] | 2.9

Row | Variant | protein stability index
73 | EKPPSGTKEKKHQCIHCERCFYTR [D15I] | 2.55
74 | EKPPSGTKEKKHQCTHCERCFYTR [D15T] | 3.37
75 | EKPPSGTKEKKHQCVHCERCFYTR [D15V] | 2.68
76 | EKPPSGTKEKKHQCDHCERQFYTR [C20Q] | 2.37
77 | EKPPSGTKEKKHQCDHCERFFYTR [C20F] | 2.56
78 | EKPPSGTKEKKHQCDHCEREFYTR [C20E] | 3.37
79 | EKPPSGTKEKKHQCDHCERPFYTR [C20P] | 3.07
80 | EKPPSGTKEKKHQCDHCERTFYTR [C20T] | 3.04
81 | EKPPSGTKEKKHQCDHCERSFYTR [C20S] | 1.74
82 | EKPPSGTKEKKHQCDHCERLFYTR [C20L] | 2.95
83 | EKPPSGTKEKKHQCDHCERMFYTR [C20M] | 2.23
84 | EKPPSGTKEKKHQCDHCERAFYTR [C20A] | 2.48
85 | EKPPSGTKEKKHQCDHCERKFYTR [C20K] | 3.58
86 | EKPPSGTKEKKHQCDHCERDFYTR [C20D] | 2.59
87 | EKPPSGTKEKKHQCDHCERHFYTR [C20H] | 2.58
88 | EKPPSGTKEKKHQCDHCERIFYTR [C20I] | 2.68
89 | EKPPSGTKEKKHQCDHCERRFYTR [C20R] | 1.98
90 | EKPPSGTKEKKHQCDHCERNFYTR [C20N] | 2.6
91 | EKPPSGTKEKKHQCDHCERGFYTR [C20G] | 2.5
92 | EKPPSGTKEWKHQCDHCERCFYTR [K10W] | 3.55
93 | EKPPSGTKEVKHQCDHCERCFYTR [K10V] | 3.9
94 | EKPPSGTKEYKHQCDHCERCFYTR [K10Y] | 3.81
